Data as given in paper doi:10.1101/2021.04.23.441157.
Values belong to the substance of their own block, whether it stands above or below them.

What was measured:
Assay in all cases: TIRF microscopy of filaments on supported lipid bilayers
[1] = target: Cdc11a-Cdc11bCTE-capped septin octamer (Ashbya gossypii | S. cerevisiae) (UniProt P32468)
[2] = target: Cdc11a-capped septin hetero-octamer (recombinant Ashbya gossypii septin complex) (Ashbya gossypii | S. cerevisiae) (UniProt P32468)
[3] = target: Cdc11b-Cdc11aCTE-capped septin octamer (Ashbya gossypii | S. cerevisiae) (UniProt P32468)
[4] = target: Cdc11b-capped septin hetero-octamer (recombinant Ashbya gossypii septin complex) (Ashbya gossypii | S. cerevisiae) (UniProt P32468)

average filament length at steady state [1]: 0.94 µm
average filament length at steady state, in octamers [1]: 29 octamers
Substance: Cdc11a-Cdc11bCTE-capped septin octamer (from UniProt P32468 1-407) (complex)

average filament length at steady state [2]: 0.72 µm
average filament length at steady state, in octamers [2]: 23 octamers
Substance: Cdc11a-capped septin hetero-octamer (recombinant Ashbya gossypii septin complex) (from UniProt P32468 1-407)

average filament length at steady state [3]: 0.55 µm
average filament length at steady state, in octamers [3]: 17 octamers
Substance: Cdc11b-Cdc11aCTE-capped septin octamer (from UniProt P32468 1-407) (complex)

average filament length at steady state [4]: 0.52 µm
average filament length at steady state, in octamers [4]: 16 octamers
Substance: Cdc11b-capped septin hetero-octamer (recombinant Ashbya gossypii septin complex) (from UniProt P32468 1-407)
